Experimental data as given in the DeepSol protein solubility set.

assay: soluble on expression in E. coli; label from the status in PepcDB or PDB records

Sequence | soluble on expression in E. coli
MGHHHHHHSHLKKNEQNFKLAGVKKDIEKLYEAVPQLSNVFKIEDKIGEGTFSSVYLATAQLQVGPEEKIALKHLIPTSHPIRIAAELQCLTVAGGQDNVMGVKYCFRKNDHVVIAMPYLEHESFLDILNSLSFQEVREYMLNLFKALKRIHQFGIVHRDVKPSNFLYNRRLKKYALVDFGLAQGTHDTKIELLKFVQSEAQQERCSQNKSHIITGNKIPLSGPVPKELDQQSTTKASVKRPYTNAQIQIKQGKDGKEGSVGLSVQRSVFGERNFNIHSSISHESPAVKLMKQSKTVDVLSRKLATKKKAISTKVMNSAVMRKTASSCPASLTCDCYATDKVCSICLSRRQQVAPRAGTPGFRAPEVLTKCPNQTTAIDMWSAGVIFLSLLSGRYPFYKASDDLTALAQIMTIRGSRETIQAAKTFGKSILCSKEVPAQDLRKLCERLRGMDSSTPKLTSDIQGHASHQPAISEKTDHKASCLVQTPPGQYSGNSFKKGDSNSCEHCFDEYNTNLEGWNEVPDEAYDLLDKLLDLNPASRITAEEALLHPFFKDMSL | not soluble
MSNYTWKQADIQTLISFYETLGEEINPKVQKVQQNSEANSFSEKAKKFGLLDLPIYSKCVDSSQLIAESASRVYHDAKEYMNNGSATEAELYRFVSSILKEVLEPIFNPKEIRNVLKGLITSLVDSRSRDEEIGSDIEKNVKYEVVRFLPESPPNFPGFNDNVSRSITNFIGYFALHTIRHHCYVNFGVDGELKFYQRNMYKKAFDDLRVNKAKPTVSVKPEASLKREPKAETPTLTRVKPEIRNDSDEDFCEIIEPAVKKSKTRQTSESNAKGGKELKDFPEKYMLEDLDKDDLPMNFKTKFRKLVEQNQMLRDEINDYKELIQLKIAEKKQRMG | not soluble
MFNKVSVIGLGYIGLPTAAVLASRGLDVVGVDVNAHAVDTINKGEIHIVEPDLDIVVRSAVMTGKLKATLTAEPADAFLVAVPTPFKGDNHEPDLSYIEAAAKTIAPVLAKGNLVVLESTSPVGTTEKLAQWLAEARPDLTFPQQKGIAADVKIAYCPERVLPGYVLQELVSNDRVIGGVSKACSEKAVALYKTFVKGECIVTNARTAEMAKLTENSFRDVNIAFANELSLVCNKLKINVWELIRLANRHPRVSILNPGPGVGGHCIAVDPWFIVNSCPDEAQLIRTAREVNDGKPHWVVDQVKQAADQFKKPIIACLGLAFKADIDDLRESPALDITKHLAESKVGQLLAVEPNITELPSKLAKQGIELVSLERALELANIVVVLVDHKEFKAADKTEFAKKVVIDTRGVVA | not soluble
MGFFVSEGERCMTYCATEVTFPQGITSLETQVMLLQTHQNGMDIVTYSTPFHPVSHIWPDHPADRGILIWQGSEYAVTDCVVGAIEQASGHLYVGNNIPVKREESGWLFVVVHRLGEVIAACQVGDKVQLQVDTQYQASLSRGHSAGHLGYLALNKVLAQGYWRKDAERKDPQGYFDFNSYAQISSDVTPDCSTDVYRLGKTLRKRGLNSDDVLRDLSFIEQKTNEQLAQWLALASPIRLECTGSTLTDSRYWECDLHEANIARIPCGGTHCKGLTAFQSIQVTLKQVDEQHIEAVTCAQPSESELEHHHHHH | soluble
MSLAEKICITEIDKLSQKLLRIETELNANIPTTLWISDLHGEGDRFKSILRGRFGMLYQTCKEGLPATFTPEKIQYLAKIVRKKNYFADSQQQMDRQDVILCFVQILKYKLTNSTNRNREIFLPEFRETIGRLLAGLPVPDPIFEESIISDRLIFHLSYAIRQVLLDRIQVLGDVFDRGSQPDKIIRILSSPAYKEMVDYVFGNHDILWMGAAAGTPSLVAETLRITCRYDHFRLLNRLRFDTSRLAEFAERTYEIKKATGKFKAKTDRGRAMEKALTVIQFKLEEKLINDFPHYGMEKRLWLERLAEMLKTGATEELNDSDFPTIDLENPSKLSKEESEIINDLIEQFRSNKYLKRLLKFFFEEGSTYHISNNFLNIHALVPSTKEGEFEEFMGHKGKDLLDYIQKVIRRTGQNYLYNREQSADDLALFFYLWCGPKSPFFGKHAMKTFERYFLLDKERHAEHSLYWQKNMQSDAFKEKMQEEFGIQRVIFGHTPVNYMQGNKMASEDGVAINVDGGFAAAYYNRGHALVHTPHQLYGIILPTPDELIKAAVRLEPAPLDIEFIDEFPQPLKIKNTIAGKLLQQERDLIMGKIQSYNSEGHHHHHH | soluble
MPKASLIIRERGLPKREVLLSPDRQWTIGRQLDCSIRLTDAYVSRLHAVINAFLFRGQPLYFIRDAHSRNGTFLNGFPLQHSTLLHHEDVIGVGTTLLVFYYPDMFREISLDECPLEHHHHHH | soluble
MALPGNYAPEVLLPQIAEINARIYADVNNGVYKAGFATRQSVYEKAVMVLFRCMDELEQLLSRQRYLIGNCITEADWRIFTTLIRFDPVYHGHFKCNLRRLVDYPNLWAYTRELYQWPGVAETVNMQHIKEHYYRSHPTINLEHHHHHH | not soluble
MAHHHHHHHRSPTRVNDGVDADEVTFVNRFTVHGAPAEFESVFARTAAFFARQPGFVRHTLLRERDKDNSYVNIAVWTDHDAFRRALAQPGFLPHATALRALSTSEHGLFTARQTLPEGGDTTGSGHR | soluble
MGSDKIHHHHHHMDRIIYTAGSGASQAMQQQSVVNHNLSNVSTPGFRAELDAMRAVPVQGDGRLATRTSVAATTSGTDFSPGYMNATGRRLDVAMQGDAFLAIQDPQGGEAYTRRGDLQVDADGMLTVKGEPVMGEQGPIVVPPDAEFSIGADGSISVLEAGANPDEIAPVGRLKLVTPDLQALTRGDDGWFRLPPGDDAEIAAPQPLDEDARLQSGVLEGSNVSATDAMVAMIDGARRYDMQMKVIESADQNAQRANSLLSVQA | not soluble
MNGNHSAPAIAIAVIDGCDGLWREVLLGIEEEGIPFRLQHHPAGEVVDSAWQAARSSPLLVGIACDRHMLVVHYKNLPASAPLFTLMHHQDSQAHRNTGNNAARLVKGIPFRDLNSEATGEQQDE | soluble
MRILEKNHGKSRVRFNCTHPIKPAAWVLAANVSLLGCAYAATDENNSQKKERENNPANTTITVTASPLRHAGVTEDSGSYNTSSMSTATGLNISARETPQSVSVLTKQRMRDQNLNSVESAVNNITGISVRQFDSDRFGFTSRGMAVNNVMRDGVATFYDTRFNYGDNTLDTDMFDRIEVVRGAAGLMAGPGNPSAVINLVRKRPTQDFRGSVSAGVGSWEKWRTALDISGPLNSEGSVRGRFVTAYEDKNSFVNRYDQSKNPFYGILEIDVTPNTLFTFGADTQRTLTRGGMFGGLPLFNSAGGRTNYAQSATTASDWASAETRTQTLFSSLQHNFDNGWNIKGTFTFDNDKLRQDVMWPTGYPDPQTNIGMRPGSLSLIDGARRQQNYDIQVNGQYSLFGRQHQLGLGWNRQRQNIDNDYYLATCNATRTCPDLGDFTQPGWQYPKPVWSDKRAYGSKGRSDQSSQYVVTQLSLIDPLTLILGGRLTTWETRGDNFGTPQNARYKNEFVPYSGLTYDINRDLSVYTSYTEIFNPENRRDRNNTLLAPVSGQNYEAGLKGVAFDNSLDYSLAVFEIRQNNMPVPDTTAPRLPDNSQPYFAVDGTKTRGFEAEVSGKMTEDWNISAGYTQYNVKLPSSNTQTPVTPVTPRKVLKLFTTYTLPGQLSDLTLGGGVNWQSQIARNLSSPIGIQQIGQGSFAIYSLMSRYQFTPQLSLTVNLDNLFNQHYYTQIGQYNQYLLGAPRNVDATVRYTF | not soluble
MAHHHHHHMRRSLVFPPCHLQEARLLQSQQLFGWYHQTRHFTSLVDRLSTGVARKLSSLTETHMMPLSEKHITEPRRPYPKRPSMQENLAERLAEQRRWRSRVVPQQIILSKDKLYIEFVWSAATLSAAAAREMRQQQNNEEENGDGCTQKRKGISCGSFANDGIIKSEKLMSHRTRFLAEFLRAYSPSTDVIGADALIYGRRGITITDVIPVGNYALRIVFSDGHSGGIYPYEYLFHLGQCKYTKMREYIRRLREKRKSRDPPKRVPSKYVPRGRNAAEGTPKRDKTDDCGHRVAAK | not soluble
SEVLRPQLIRIDGRNYRKNPVQEQTYQHEEDEEDFYQGSMECADEPCDAYEVEQTPQGFRSTLRAPSLLYKHIVGKRGDTRKKIEMETKTSISIPKPGQDGEIVITGQHRNGVISARTRIDVLLDTFRRKQPFTHFLAFFLNEVEVQEGFLRFQEEVLAKCSMDHGVDSSIFQNPKKLHLTIGMLVLLSEEEIQQTCEMLQQCKEEFINDISGGKPLEVEMAGIEYMNDDPGMVDVLYAKVHMKDGSNRLQELVDRVLERFQASGLIVKEWNSVKLHATVMNTLFRKDPNAEGRYNLYTAEGKYIFKERESFDGRNILKLFENFYFGSLKLNSIHISQRFTVDSFGNYASCGQIDFS | soluble
GPAIAENLYFQSPNPRPGKPSAPSLALGPSPGASPSWRAAPKASDLLGARGPGGTFQGRDLRGGAHASSSSLNPMPPSQLQLPTLPLVMVAPSGARLGPLPHLQALLQDRPHFMHQLSTVDAHARTPVLQVHPLESPAMISLTPPTTATGVFSLKARPGLPPGINVASLEWVSREPALLCTFPNPSAPRKDSTLSAVPQSSYPLLANGVCKWPGCEKVFEEPEDFLKHCQADHLLDEKGRAQCLLQREMVQSLEQQLVLEKEKLSAMQAHLAGKMALTKASSVASSDKGSCCIVAAGSQGPVVPAWSGPREAPDSLFAVRRHLWGSHGNSTFPEFLHNMDYFKFHNMRPPFTYATLIRWAILEAPEKQRTLNEIYHWFTRMFAFFRNHPATWKNAIRHNLSLHKCFVRVESEKGAVWTVDELEFRKKRSQRPSRCSNPTPGP | soluble
MKYIEPHFISFTQHTLKSQLIPKSFHGMKILQFSDLHLGYYFSLQHLSQVVSKINAVNPDIVLFTGDLIDNYQTYTDTPFVASILKNIQAPFGKFAIYGNHDHGGYGTEYYEHIMRESGFELLLNSKKRIRLMDNSEISIFGLDDILLGKPKIEKTLQHARQNTYNIVLVHEPDIAPQISKYPINLQLSGHSHGGQVQIPFLGAIITPSLAKDYIEGFYTMQDLTLYVNRGLGRTRVPFRFMSKPEITIFTLQHSLEHHHHHH | not soluble
MGSDKIHHHHHHMTTYSPSQENYRELAHLLARFTSLTQIKTIFYDFTGILLKDDFVYINHSAIEDNLAQLTFSDYAVFPVSRNIQMWGAILCESVNVSKKRLFLSRSYLENLMTQIFDEDTLGKVSVWEPLTSDQVGQINNLHALFHPTGDTDPLQAVLAPNAVIAGHTIDNDEAFRSISLAIDYIQKNIQRPISLNEVAQRAYLSPSYLSRLFKKYLHVNFIEYVNNQKIALAQEKLSLTLTPINQISNQIGFTQTSYFTKIFKKKTGITPSEFRQRNHTIQKIYTIPRELNWDTNDSVIDVTKNYFKSHHITYHTDSEEGATYVNSIGELNDAKGNRGWIYTVDGQQPTQSADEIATHDKSVIQWVYTDYSN | not soluble
MVDIANEVGASESAIPPLKMLLLEGARQAALEAGLQNNSGILADTTFGQQALNDVTGQGWWIGRPVEMPGSYPLKLEHGDIGSQLVSWPQEHVVKCLVFYHPLDAESVRLEQEALIDEVYRACCQSGHDLLLEVILPRDAADQNEQYYPQIVERFYQLGILPDWWKLPPLSPDRWREISQHIEHYDPECRGILILGLDAPESELKSGFAAAADMPWVKGFAVGRTIFGEPSRQWLGGQLNDEQLIATVKQKYRMLIDYWREYRPAR | not soluble
MDTSSSCKAFLLDSALAVKWPRDKETAPRLPQHRGWNPGDAPQTSQGRGTGTPVGAETKTLPSTDVAQPPSDSDAVGPRSGFPPQPSLPLCRAPGQLGEKQLPSSTSDDRVKDEFSDLSEGDVLSEDENDKKQNAQSSDESFEPYPERKVSGKKSESKEAKKSEEPRIRKKPGPKPGWKKKLRCEREELPTIYKCPYQGCTAVYRGADGMKKHIKEHHEEVRERPCPHPGCNKVFMIDRYLQRHVKLIHTEVRNYICDECGQTFKQRKHLLVHQMRHSGAKPLQCEVCGFQCRQRASLKYHMTKHKAETELDFACDQCGRRFEKAHNLNVHMSMVHPLTQTQDKALPLEAEPPPGPPSPSVTTEGQAVKPEPT | soluble
